In IntAct's records for PubMed 24525236:

Biological target: flt3_human FLT3 (UniProt P36888)
Sequence (P36888 whole entry): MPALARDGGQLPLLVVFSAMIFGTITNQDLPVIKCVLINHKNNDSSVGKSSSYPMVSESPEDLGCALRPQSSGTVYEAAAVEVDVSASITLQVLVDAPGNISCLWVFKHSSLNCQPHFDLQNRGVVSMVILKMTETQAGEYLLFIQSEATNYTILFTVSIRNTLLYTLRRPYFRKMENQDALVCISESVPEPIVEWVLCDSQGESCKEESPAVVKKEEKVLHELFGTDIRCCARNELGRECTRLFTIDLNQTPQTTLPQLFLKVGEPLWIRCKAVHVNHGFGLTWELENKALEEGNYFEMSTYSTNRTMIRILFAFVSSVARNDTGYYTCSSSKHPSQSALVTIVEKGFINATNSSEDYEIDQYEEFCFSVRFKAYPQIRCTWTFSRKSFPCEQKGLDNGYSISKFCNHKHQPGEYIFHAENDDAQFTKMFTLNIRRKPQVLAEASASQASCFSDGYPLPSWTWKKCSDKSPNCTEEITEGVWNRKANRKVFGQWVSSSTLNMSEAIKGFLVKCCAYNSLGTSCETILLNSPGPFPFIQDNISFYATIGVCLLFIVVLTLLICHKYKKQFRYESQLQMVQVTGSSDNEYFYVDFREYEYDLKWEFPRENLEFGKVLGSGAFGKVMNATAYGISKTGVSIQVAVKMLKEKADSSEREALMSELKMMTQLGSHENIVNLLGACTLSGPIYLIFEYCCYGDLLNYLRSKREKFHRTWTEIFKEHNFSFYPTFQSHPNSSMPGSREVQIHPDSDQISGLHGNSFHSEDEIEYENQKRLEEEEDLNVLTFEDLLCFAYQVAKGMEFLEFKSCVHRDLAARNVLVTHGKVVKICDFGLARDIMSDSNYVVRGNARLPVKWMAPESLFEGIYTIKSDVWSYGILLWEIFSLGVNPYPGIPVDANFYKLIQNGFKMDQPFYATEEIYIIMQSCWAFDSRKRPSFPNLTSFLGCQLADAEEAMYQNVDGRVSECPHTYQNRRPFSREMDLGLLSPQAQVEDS

Tyrosine-protein kinase SYK (Homo sapiens) (from UniProt P43405) R195G;R197L
effect of a mutation on the interaction: decreasing interaction
